Source: US20080248008A1, “Inhibitors of Protein Kinase a Anchoring” (priority 2004, published 2008)
“Also recorded” adds a separate entry of the source. Ends that are not written are not given here.

Assays:
PKA-RIIα [1] = molecular target: T1, PKA-RIIα (Homo sapiens, UniProt P13861); experiment: Immunofluorescence of PKA-RIIα at centrosomes in human T cells; format: cell-based; set-up: endogenous in cells; host or cells: human peripheral blood CD3+ T cells; conditions: human peripheral blood T cells
Description: Blots were developed by using Supersignal West Pico substrate (Pierce). For immunofluorescence polyclonal and monoclonal antibodies against RIα (Biogenesis), RIIα (Transduction laboratories) and AKAP450 (A24, Tasken et al., 2001, J. Biol. Chem, 276:21999-22002) were used as primary antibodies. Secondary antibodies (all Molecular Probes) were Alexa-488 conjugated anti-mouse and anti-rabbit IgG (both goat) and Alexa-555 anti-rabbit IgG (goat).
Immunofluorescence analysis of cells was performed as previously described (Collas, P. et al., 1996, J. Cell Biol. 135, 1715-1725). RI was detected by using an anti-RI monoclonal antibody (Transduction Laboratories) as a primary antibody at a […] and Alexa-488 as a secondary antibody (1:600, Goat anti Mouse IgGs, Molecular Probes). Immunofluorescence was performed on Y1 cells attached to collagen/fibronectin coated coverslips. Mitochondria were stained using MitoTracker Red CMXRos (Molecular Probes) in fresh medium with incubation at 37° C. for 30 min prior to cell fixation. All cells were washed in PBS, fixed with 3% paraformaldehyde and permeabilised using 0.1% Triton X-100. […] Alternatively, fluorescently labeled cells were examined using a Leica TCS SP1 confocal fluorescence microscope (Leica, Heidelberg, Germany) equipped with an Ar (488 nm) and two He/Ne (543 and 633 nm) laser lines. […]

PKA-RIIα [2] = molecular target: T1, PKA-RIIα; experiment: Displacement of PKA-RII from the particulate fraction in T cells; format: cell-based; set-up: endogenous in cells; host or cells: human peripheral blood CD3+ T cells; conditions: 25 μM or 50 μM
Description: Displacement of PKA-RII from the particulate Fraction in T-cells. Negatively selected CD3^+ T-cells (20×10^6/3 ml/well) were cultured in 6-well plates with 0-50 μM Arg11-SuperAKAPIS (or 0-50 μM M3-Arg11) for 12 hours. Cells were lysed in 250 μl lysis buffer (50 mM Tris pH 7.4, 100 mM NaCl, 5 mM EDTA, 50 mM NaF, 10 mM Na-pyrofosfat, 1 mM Na3VO4, 1 mM PMSF, 0.7% triton X-100) and centrifuged at 14 000×g for 10 min. The sedimented proteins were resuspended in loading dye before being resolved by SDS/PAGE and detected by immunoblotting.
To assess the effect of MEME3-Arg11 on anchoring of PKA type II, T cells were treated with MEME3-Arg11 or Arg11-super-AKAP-is (as a positive control) and particulate fractions were isolated, followed by 10% PAGE and blotting onto a PVDF membrane (fraction no. 2-4, FIG. 17 in upper panel) and analysed by immunoblotting using antibodies against PKA-RIIα (FIG. 17, upper panel). The levels of PKA-RIIα in the particulate fractions were measured by densitometry of the autoradiograms (lower panel). The level of PKA-RIIα was set relative to that of the internal standard PKCα.

RI (A98S) = molecular target: T2, RI (A98S) (Bos taurus, UniProt P00514, A98S); experiment: R-overlay (solid-phase binding) of 32P-labelled RI on membrane-synthesized peptides; set-up: species or system bovine; conditions: for RI binding (RI-32P-overlay, autoradiography): peptides on membrane, qualitative
T2 construct: made in house; host or cells: E. coli BL21 (B121 [sic])
Description: Autospot Peptide Array. Peptide arrays were synthesized on cellulose paper by using an Autospot Robot ASP222 (ABiMED, Langenfeld, Germany) as described (Frank, R., 1992, Tetrahedron 48, 123-132) or Multipep automated peptide synthesizer (INTAVIS Bioanalytical Instruments AG, Koeln, Germany) as described (Frank, R., 1992, Tetrahedron 48, 123-132).
R-overlay. R-overlays were conducted as described, using ^32P-labeled recombinant murine RII (Hausken, Z. E., et al., 1998 in Protein Targeting Protocols, ed. Clegg, R. A. (Humana, Totowa, N.J.), Vol. 88, pp. 47-64) or recombinant bovine RI (A98S) or by cold RI-overlay where bound RIα was detected by Western blot. Cold RI-overlay was performed by incubating the membranes with 250 nM RI overnight at 4° C., then the membranes were washed five times in TBST for 5 min. Detection of RI was performed using an anti-RI rabbit polyclonal antibody (Santa Cruz) at a concentration of 0.2 μg/μl for 1 hour at 4° C. Then the membranes were washed five times for 5 minutes in PBS followed by incubation with HRP-conjugated anti-rabbit IgGs (1:5000) for 1 hour at 4° C. The membranes were washed in PBS as described above before detection by Supersignal West Dura Extended Duration Substrate (Pierce).
Densitometric analysis. The densitometric analysis was performed using Scion Image (www.scioncorp.com) (Scion Coorperation, Mo., USA) or Quantity One version 4.5.0, (BioRad).

T2 sequence (P00514 whole entry A98S): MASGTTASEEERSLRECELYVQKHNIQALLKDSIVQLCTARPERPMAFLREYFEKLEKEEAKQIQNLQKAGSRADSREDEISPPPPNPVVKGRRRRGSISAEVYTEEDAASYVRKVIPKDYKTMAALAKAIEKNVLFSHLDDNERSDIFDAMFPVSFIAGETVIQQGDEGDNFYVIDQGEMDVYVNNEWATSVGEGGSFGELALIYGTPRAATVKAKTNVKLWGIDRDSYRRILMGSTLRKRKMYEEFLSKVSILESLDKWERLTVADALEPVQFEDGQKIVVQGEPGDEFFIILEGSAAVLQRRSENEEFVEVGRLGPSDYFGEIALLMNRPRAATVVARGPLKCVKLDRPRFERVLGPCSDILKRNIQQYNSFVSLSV
T1 sequence (P13861 whole entry): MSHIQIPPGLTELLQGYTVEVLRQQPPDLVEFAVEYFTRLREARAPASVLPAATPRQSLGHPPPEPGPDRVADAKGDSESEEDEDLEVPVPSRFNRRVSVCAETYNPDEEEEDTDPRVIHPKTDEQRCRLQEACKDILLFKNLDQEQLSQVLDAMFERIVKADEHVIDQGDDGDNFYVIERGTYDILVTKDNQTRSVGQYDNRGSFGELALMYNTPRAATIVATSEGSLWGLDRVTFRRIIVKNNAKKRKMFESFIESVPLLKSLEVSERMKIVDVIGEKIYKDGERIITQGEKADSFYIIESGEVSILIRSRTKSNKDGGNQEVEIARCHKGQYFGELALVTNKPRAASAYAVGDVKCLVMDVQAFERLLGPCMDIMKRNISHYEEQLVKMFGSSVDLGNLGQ

Arg11-super-AKAP-is: RIIα specific peptide, SuperAKAPIS (QIEYVAKQIVDYAIHQA) with eleven arginine residues (also: eleven arginine residues attached (Arg11), place not given here) [reference compound]
displacement of PKA-RIIα from centrosomes (PKA-RIIα [1]): specifically displaced PKA-RIIα
reduction of PKA-RIIα in particulate fraction (PKA-RIIα [2]): approximately 80%

DELKQYANQLASQVIKEATE [PDSM consensus sequence]
RI binding (RI-32P-overlay, autoradiography) (RI (A98S)): higher affinity for RI than the other R-binding motifs

LEQYANQLADQIIKEATe [E18e]
R-binding of D-amino acid derivatives (RIα and RIIα overlay) (RI (A98S); peptidomimetics on membrane): accepted

LKQYANQLASQVIKEATE [PDSM]
RI binding (RI-32P-overlay, autoradiography) (RI (A98S)): same RI binding affinity as the full length PDSM sequence; also recorded: much higher RIα affinity compare to that of PV-38; also recorded: higher binding to RIα
